This is an account of results in publication PMC9168731.

Some results are limits rather than exact numbers.

The target in assay [1] is S. pombe Arp2/3 complex (S. pombe) (UniProt Q9UUJ1).
For assay [2] the target is unchanged. This is another data set of the same source.

UniProt Q9UUJ1, sequence (Q9UUJ1 whole entry, looked up, one chain of several): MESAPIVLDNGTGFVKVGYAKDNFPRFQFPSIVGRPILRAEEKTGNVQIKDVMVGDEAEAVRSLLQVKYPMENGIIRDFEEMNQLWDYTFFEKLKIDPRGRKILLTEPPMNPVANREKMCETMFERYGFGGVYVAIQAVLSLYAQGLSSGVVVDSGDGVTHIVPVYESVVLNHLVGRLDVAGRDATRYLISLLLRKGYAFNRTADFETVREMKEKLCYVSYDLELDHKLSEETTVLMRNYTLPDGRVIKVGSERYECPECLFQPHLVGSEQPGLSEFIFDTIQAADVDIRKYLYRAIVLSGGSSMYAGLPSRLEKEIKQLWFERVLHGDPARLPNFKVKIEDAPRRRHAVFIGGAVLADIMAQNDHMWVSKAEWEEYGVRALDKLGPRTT

Turning to “Schizosaccharomyces pombe WDS protein Dip1, WT (from UniProt O74771 1-374) (natural protein)”, in assay [1], the maximum polymerization rate, pyrene actin polymerization assay (3 μM 15% pyrene-labeled actin, 50 nM SpArp2/3 complex, 5 μM Dip1); 2.8 nM/s for reactions without Dip1 turned out to be 20 nM/s. For the substance “Dip1(R301E) (from UniProt O74771 1-374) (natural protein)”, the activation of Arp2/3 complex, pyrene actin polymerization assay (3 μM 15% pyrene-labeled actin, 50 nM SpArp2/3 complex, 5 μM Dip1) (% reduction compared to WT Dip1) in assay [2] was greater than 60. “Dip1(N292K) (from UniProt O74771 1-374) (natural protein)”: the maximum polymerization rate, pyrene actin polymerization assay (3 μM 15% pyrene-labeled actin, 50 nM SpArp2/3 complex, 5 μM Dip1); 2.8 nM/s for reactions without Dip1 in assay [1] was determined as 8 nM/s.
